Measured values: article PMC6222848, “Spatial Overlap of Claudin- and Phosphatidylinositol Phosphate-Binding Sites on the First PDZ Domain of Zonula Occludens 1 Studied by NMR” (Molecules : A Journal of Synthetic Chemistry and Natural …, 2018)

B1: GST-tagged mouse ZO-1(PDZ1) (residues 18–110) [mouse] / His6-tagged thioredoxin (Trx) fusion protein of mouse CLD-3 C-terminus (Trx-CLD3, residues 210–219) [mouse] (parent complex)
chain 1: IWEQHTVTLHRAPGFGFGIAISGGRDNPHFQSGETSIVISDVLKGGPAEGQLQENDRVAMVNGVSMDNVEHAFAVQQLRKSGKNAKITIRRKK
chain 2: GTAYDRKDYV

Variants of: B1
Test: SPR; absence of phytic acid (gray bar); parent: 1.2e+03; read off a plot
A response of roughly 15 RU was found for chain 1 IWEQHTVTLHRAPGFGAGIAISGGRDNPHFQSGETSIVISDVLKGGPAEGQLQENDRVAMVNGVSMDNVEHAFAVQQLRKSGKNAKITIRRKK [chain 1 F17A] in this work.
A response of roughly 110 RU was found for chain 1 IWEQHTVTLHRAPGFGFGIAISGGRDNPHFQSGETSIVISAVLKGGPAEGQLQENDRVAMVNGVSMDNVEHAFAVQQLRKSGKNAKITIRRKK [chain 1 D41A] in this work.
A response of roughly 40 RU was found for chain 1 IWEQHTVTLHRAPGFGFGIAISGGRDNPHFQSGETSIVISDVLKGGPAEGQLQENDRVAMVNGVSMDNVEHAFAVQQLAKSGKNAKITIRRKK [chain 1 R79A] in this work.
A response of roughly 22 RU was found for chain 1 IWEQHTVTLHRAPGFGFGIAISGGRDNPHFQSGETSIVISDVLKGGPAEGQLQENDRVAMVNGVSMDNVEHAFAAQQLRKSGKNAKITIRRKK [chain 1 V75A] in this work.
A response of roughly 28 RU was found for chain 1 IWEQHTVTLHRAPGFGFGIAISGGRDNPHFQSGETSIVISDVAKGGPAEGQLQENDRVAMVNGVSMDNVEHAFAVQQLRKSGKNAKITIRRKK [chain 1 L43A] in this work.
